Experimental data as given in the nanobody polyreactivity screen of Harvey et al. (2022).

Experiment: yeast display, Sf9 membrane polyspecificity reagent, FACS + sequencing; frameworks hold sequencing errors
Summary of the method: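 A synthetic nanobody library was expressed on Saccharomyces cerevisiae BJ5465 by galactose induction for 36–48 hours. The library was stained for 1 hour at 4 °C with 10% biotinylated, detergent-solubilized Sf9 membrane reagent and enriched with streptavidin microbeads before FACS. Low and high (top ~1%) gates were set on anti-HA fluorescence for expression and streptavidin fluorescence for reagent binding, and each polyreactivity label reflects the gate of origin.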
In the case of “QVQLVESGGGLVQAGGRLRLSCAASGSIFDYNGMGWYRQAPGKERELVATITLSTARTYYADSVKGRFTISRDNAKNTVYLQMNSLKPEDTAVYYCATRYPKFRRRNYWGQGTQVTVSS”, the “polyreactivity (PSR sort gate)” value is reported as “high polyreactivity”. In the case of “QVQLVESGGGLVQAGGSLRLSCAASGFTFGSNTMGWYRQAPGKERELVAAITTSGDSTYYADSVKGRFTISRDHAKNTVYLQMNSLKPEDTAVYYCAAERRYGRYYRLVRLLGQGTQVTVSS”, the “polyreactivity (PSR sort gate)” value is reported as “high polyreactivity”. With “QVQLVESGGGLVQAGGSLRLICAASGIIFRYYAMGWYRQAPGKERELVASISRGGSTYYADSVKGRFTISRDNAKNTVYLQMNSLKPEDTAVYYCAADVYPVYLYGYEYCGQGTQVTVSS” the “polyreactivity (PSR sort gate)” value was “high polyreactivity”. For “QVQLVESGGGLVQAGGSLRLSCAASGRTFYFNAMGWYRQAPGKERELVAGISGDGSTNYADSVKGRFTISRDNAKNTVYLQMNSLKPEDTAVYYCAARIRPGYRTWYYSWGQGTQVTVSS”, the “polyreactivity (PSR sort gate)” value was “low polyreactivity”. With “QVRLVESGGGLVQAGGSLRLSCAASGFTFSPYAMGWYRQAPGKERELVAAITSSGGSTYYADSVKGRFTISRDNAKNTVYLQMNSLKPDDTAVSSCAKEIRYSSSVSESDYWGQGTQVSVSS” the “polyreactivity (PSR sort gate)” value was “high polyreactivity”. For “QVQLVESGGGLVQAGGSLRLSCAASGSIFGYYAMGWYRQAPGKERELVASITRSGDTTYYADSVKGRFTISRDNAKNTVYLQMNSLKPEDTAVYYCAARRWRWYYDGFVRMDYWGQGTQVTVSS”, the “polyreactivity (PSR sort gate)” value was “high polyreactivity”. For “QVHLVESGGGLVQAGGSLRLSCAASGFIFYSNMGWYRQAPGKESEFVAAITWRGGSTYADSVKRRFTISRDNAKNSVYLQMNILKPEDPAVSYCAGESYRAHTPGHPSCTRFGYWGQGTHVTVSS”, the “polyreactivity (PSR sort gate)” value was “high polyreactivity”. For “QVQLVESGGGLVQAGGSLRLSCAASGFIFQSYAMGWYRQAPGKERELVAAISSRGGSTYYADSVKGRFTISRDIAKNTVYLQMNSLKPEDTAVYYCAADLYGNEYDYWGQGTQVTVSS”, the “polyreactivity (PSR sort gate)” value was “low polyreactivity”. In the case of “QVQLVESGGGLVQAGGSLRLSCAASGSIIVRYAMGWYRQAPGKERELVASISKRGGSTYYADSVKGRFTISRDNAKNTVYLQMNSLKPEDTAVYYCAARVVTRVRGVGYNYWGQGTQVTVSS”, the “polyreactivity (PSR sort gate)” value is reported as “high polyreactivity”. For “QVQLVESGGGLVQAGGSLRLSCAASGRIFGQNAMGWYRQAPGKERELVAVITSRGTRTYYADSVKGRFTISRDNAKNTVYLQMNSLKPEDTAVYYCAADVYSDNYKTWPYDYWGQGTQVTVSS”, the “polyreactivity (PSR sort gate)” value was “low polyreactivity”. With “QVQHVESRGGLVQAGGSLRLSCAASGNTFWYNAMGWYRQAPGKERELVAAITTSDFGTYYADSVKGRFTISRDNAKNTVYLQMNSLKPEDTAVYYCAAEVYTQRPYYYPAYDYWGQGTQVTVSS” the “polyreactivity (PSR sort gate)” value was “high polyreactivity”. For “QVQLEESGGGLVQAGGSLRLSCAASGIIFWWYAMGWYRQAPGKERELVAAISGTGGSTYYADSVKGRFTISRDNAKNTVYLQINRLKPEDTAVYFCAARGKSSSFYDYDYWGQGTQVTVSS”, the “polyreactivity (PSR sort gate)” value was “low polyreactivity”. In the case of “QVQLVESGGGLVQAGGSLRISCAASGSIFSDNGMGWYRQAPGKERELVAAITIGGSTNYADSVKGRFTISRDNAKNTVYLLMKRLNPEDTAVYYCNTDFFYYGYNFPYFDYDYWGQGTQVTVSA”, the “polyreactivity (PSR sort gate)” value is reported as “low polyreactivity”. With “QVQLVESGGGLVQAGGSLRLSCAASGRIFKYNAMGWSIQAPGKERELVAAISSGGSTKYADSVKGRFTISRDNAKNTVYLQMNSLKPEDTAVYYCNAVYTPYRRSFYYWGHGTQVTVSS” the “polyreactivity (PSR sort gate)” value was “high polyreactivity”. In the case of “QVQLVESGGGLVQAGGSLRLSCAASGRTLTIYAMGWYRQAPGKERELVATIRSSGSTNYADSVKGRFTISRDNAKNTVYLQMNSLKPEDTAVYYCAARGNTPRTRRYGYWGQGTQVTVSS”, the “polyreactivity (PSR sort gate)” value is reported as “high polyreactivity”. For “QVQLVESGGGLVQAGGSLRLSCAASGFIFGYYAMGWYRQAPGKERELVAAISWSGVSTYYADSVKARFTISRDNAKNTVSLQMNSLKREDTAVYYCAFGYVLTGVFQARFDYWGQGTQVTVSS”, the “polyreactivity (PSR sort gate)” value was “high polyreactivity”. With “QVQHVESGGGLVQAGGSLRLSCSASGRTFNFYTMGWYRQAPGKEREFVAGITSTGGSTDYADSVKGRFTISRDNAKNTVYLQMNSLKPEDTAVYYCNALRRWWEPYWTYNYWGQGTQVTVSS” the “polyreactivity (PSR sort gate)” value was “high polyreactivity”. With “QVQLVESGGGLVQAGGSLRLSCAASGRTFDGYTMGWYRQAPGKERELVAAISGGGGSTYYADSVKGRFTISRDNAKNTVYLQLNSLKPEDTAVYYCNKVVRQHGGLYNYWGQGTQVTVSS” the “polyreactivity (PSR sort gate)” value was “low polyreactivity”. For “QVQLVESGGGLVQAGGSLRLSCAASGFIFNVNAMGWYRQAPGKEREFVAVSTYADSVKGRFTISRDNAKNTVYLQMNSLKPEDTAVYYCAATFVQPVYDYDYWGQGTQVTVSS”, the “polyreactivity (PSR sort gate)” value was “low polyreactivity”. In the case of “QVQLVESGGGLVQAGGSLRLSCAASGRIFGINAMGWYRQAPGKERELVAAITWSGDGTYYADSVKGRFTISRDNAKNTVYLQMNSLKPEDTAVYYCARYDYWGHGTQVTVSS”, the “polyreactivity (PSR sort gate)” value is reported as “low polyreactivity”. For “QVQLVESGGGIVQAGGSLRLSCAASGFTFTHYAMGWYRQAPGKERELVAAISPSGGSTYYADSVKGRFTISRDNAKNTVYLQMNSLKTEDTAVFYFAARRDGWVQWGYYYWGQGTEVTVSS”, the “polyreactivity (PSR sort gate)” value was “low polyreactivity”. With “QVQLVESGGGLVQAGGSLRLSCAASGRIFGRNAMGWYRQAPGKERELVAAISRSGGSTYYADSVKGRFTISRDNAKNTVYLQMNSLKPEFTAVYYCAADVYRTWYWWFDYWGHGTQVTVSS” the “polyreactivity (PSR sort gate)” value was “high polyreactivity”. For “QVQLGESGGGLVQAGGSLRLSCAASGSIFQPYAMGWYRQAPGKEREFVAAISRSGGMTYYADSVKGRFTISRDNEKNTVYLQMNSLKPEDTAVYYCATGRQVVRSYSEGDYSGQGTQVTVSS”, the “polyreactivity (PSR sort gate)” value was “low polyreactivity”. With “QVQLVESGGGLVQAGGSLRLSCAASGIIFQRNDMGWYRQAPGKERELVANIRDGGITYADSVKGRFTISRDNAKNTVYLQMNSLKPEDTAVYYCARDDTSPGYGDQSFNAAYYYWGQGTQVTVSS” the “polyreactivity (PSR sort gate)” value was “low polyreactivity”. In the case of “QVQLVESGGGLVQAGGSLRLSCAASGRIFINNAMGWYRQAPGKERELVAAINTGGGTNYADSVKGRFTISRDNAKNTVYLEMNSLKPEDSAVYYCAARTYDFRARHKDGYWGQGTQVTVSS”, the “polyreactivity (PSR sort gate)” value is reported as “high polyreactivity”. In the case of “QVQLVESGGGLVQAGGSLRLSCAASGRTFGRNTMGWYRQAPGKERELVASITRSSGSTYYADSVKGRFTISRDNAKNTVYLQMNSLKPEDTAVSYCNARATSGGDYWGQGTQVTVSS”, the “polyreactivity (PSR sort gate)” value is reported as “high polyreactivity”. With “QVQLVESGGGLVQAGGSLRLSCAASGITFSYNAMGWSRQAPGKERELVAAISSNSDSTYYADSVKGRFTISRDNAKNTVYLQMNSLKPEDTAVYYCAADTPDAPDYSGFYYWGQGSQVTVSS” the “polyreactivity (PSR sort gate)” value was “low polyreactivity”. In the case of “QVQLVESGGGLVQAGGSLRLSCAASGFTVGVYAMGWYRQAPGKERELVAAISSGGSTNYADSVKGRFTISRDNAKNTVYLQMNSLKPEDTAVYYCAADAVSGGQGTADYDYWGQGTQVTVSS”, the “polyreactivity (PSR sort gate)” value is reported as “low polyreactivity”. With “QVQLVESGGGLVQAGGSLRLSCAASGSIFPGYAMGWYRQAPGKERELDATITWSGGSTYYADSVKGRFTISRDTAKNTVYLQMNSLKPEDTAVYYCNADSNWYYQWNYYGLYDYWGQGTQVTVSS” the “polyreactivity (PSR sort gate)” value was “low polyreactivity”. For “QVQLVESGGGLVQAGGSLRLSCAASGRTFLNYAMGWYRQAPGKEREFVAAITWRVGTTYYADSVKGRFTISRDNAKNTVYLQMNSLKPEDTAVYYCAARSRTGRYDYWGQGTQVTVSS”, the “polyreactivity (PSR sort gate)” value was “high polyreactivity”. With “QVLLQESGGGLVQAGGSLRLSCAASGNIFSAGGMGWYRQAPVNERELVAGIGTGTSTNYADSVKGRFTISRDNAKNTVYLQMNILKPEDTAVYYCAAAYYSGLSHWYWGQGTQVTVSS” the “polyreactivity (PSR sort gate)” value was “low polyreactivity”. In the case of “QVQLHESGGGLVQAGGSLRLSCAASGTISYAGPMGWYRQAPGKEREVVAGIGVGSNTIYADSVKGRYTIIRDNAKKTVYLQMKSLKPEDTEVYYCAVGGYAPLGRPYWGQGTQVTVSS”, the “polyreactivity (PSR sort gate)” value is reported as “low polyreactivity”.
